Results from patent US5766581, “Method for treating mammals with monopegylated proteins that stimulates megakaryocyte growth and differentiation” (Amgen Inc., dated 1998).
Values belong to the molecule of their own block, whether it stands above or below them.

Assays:
[1] = target: murine Mpl receptor, full length, expressed on 32D cells (subclone 1A6.1) (murine) (UniProt Q08351)
[2] = target: human Mpl receptor, full length, on cells (human) (UniProt P40238)
[3] = target: murine Mpl receptor, full length, expressed on 32D cells (subclone 1A6.1) (murine) (UniProt Q08351); remark: listed apart in the source
[4] = target: human Mpl receptor, full length, on cells (human, UniProt P40238); test: cell-based or functional assay
[5] = target: murine Mpl receptor, full length, expressed on 32D cells (subclone 1A6.1) (murine, UniProt Q08351); test: cell-based or functional assay

Molecule: 25 kd canine Mpl ligand purified from aplastic canine plasma
1A6.1 cell growth, fraction diluted 1:45000 (cells per well) [1]: 6000
Human Meg assay (units/mg) [2]: 1.4e+10 units/mg
1A6.1 assay (units/mg) [3]: 1.05e+10 units/mg

Molecule: 31 kd canine Mpl ligand purified from aplastic canine plasma
Human Meg assay (units/mg) [2]: 5.7e+09 units/mg
1A6.1 assay (units/mg) [3]: 6.52e+09 units/mg

More lines, now with the values ahead:

Megakaryocytes per Well (-mur-MPL-X) [4]: 2 megakaryocytes per well
U/ml (- mur-MPL-X), 1A6.1 cells [5]: 0 U/ml
B1: human MGDF-3 (amino acids 1-265 of SEQ ID NO: 27) (ligand)
chain: SPAPPACDLRVLSKLLRDSHVLHSRLSQCPEVHPLPTPVLLPAVDFSLGEWKTQMEETKAQDILGAVTLLLEGVMAARGQLGPTCLSSLLGQLSGQVRLLLGALQSLLGTQLPPQGRTTAHKDPNAIFLSFQHLLRGKDFWIVGDKLHCLSQNYWLWASEVAAGIQSQDSWSAEPNLQVPGPNPRIPEQDTRTLEWNSWTLSWTLTQDPRSPGHFLRNIRHRLPATQPPAWIFSFPNPSSYWTVYALPSSTHLAHPCGPAPPPAS

Megakaryocytes per Well (-mur-MPL-X) [4]: 100 megakaryocytes per well
U/ml (- mur-MPL-X), 1A6.1 cells [5]: 12800 U/ml
B2: human MGDF-2 (amino acids 1-174 of SEQ ID NO: 25) (ligand)
chain: SPAPPACDLRVLSKLLRDSHVLHSRLSQCPEVHPLPTPVLLPAVDFSLGEWKTQMEETKAQDILGAVTLLLEGVMAARGQLGPTCLSSLLGQLSGQVRLLLGALQSLLGTQLPPQGRTTAHKDPNAIFLSFQHLLRGKVRFLMLVGGSTLCVR
